{"source": "paper PMC2764089", "target": "Spc105p-PrA (S. cerevisiae) (UniProt P53148)", "sequence (P53148 whole entry, the tested form may be a part)": "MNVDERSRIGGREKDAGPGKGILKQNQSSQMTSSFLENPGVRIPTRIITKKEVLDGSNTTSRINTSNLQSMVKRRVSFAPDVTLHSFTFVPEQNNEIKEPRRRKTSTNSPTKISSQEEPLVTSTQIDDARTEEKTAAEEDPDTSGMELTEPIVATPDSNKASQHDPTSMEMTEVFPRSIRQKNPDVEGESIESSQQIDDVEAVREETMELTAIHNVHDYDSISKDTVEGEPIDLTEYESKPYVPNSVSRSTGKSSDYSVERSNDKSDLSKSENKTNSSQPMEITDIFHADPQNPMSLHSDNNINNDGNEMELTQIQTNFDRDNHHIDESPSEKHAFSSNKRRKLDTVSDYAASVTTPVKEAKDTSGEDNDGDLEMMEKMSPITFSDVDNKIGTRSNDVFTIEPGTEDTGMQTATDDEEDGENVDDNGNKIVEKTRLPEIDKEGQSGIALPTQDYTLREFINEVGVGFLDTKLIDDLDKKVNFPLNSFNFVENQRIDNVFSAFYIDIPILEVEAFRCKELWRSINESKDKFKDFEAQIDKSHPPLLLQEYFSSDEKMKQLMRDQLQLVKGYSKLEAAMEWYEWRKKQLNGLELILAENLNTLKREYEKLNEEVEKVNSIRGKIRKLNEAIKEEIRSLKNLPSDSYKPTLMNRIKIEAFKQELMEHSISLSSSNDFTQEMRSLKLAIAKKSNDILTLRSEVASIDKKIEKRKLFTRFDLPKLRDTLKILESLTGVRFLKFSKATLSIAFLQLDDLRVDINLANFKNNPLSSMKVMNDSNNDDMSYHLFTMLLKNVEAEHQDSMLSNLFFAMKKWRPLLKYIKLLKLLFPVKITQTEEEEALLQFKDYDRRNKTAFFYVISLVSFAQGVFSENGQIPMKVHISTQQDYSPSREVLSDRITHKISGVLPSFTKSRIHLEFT", "test": "SEC + other: glycerol-gradient velocity ultracentrifugation; whole cell extracts of wild-type strains expressing Spc105p-PrA or Kre28p-PrA (each fusion in its own strain); 10-40% glycerol gradients and HiPrep 16/60 Sephacryl S-500 HR column; fractions found by western blotting with anti-PrA"}
{"substance": "Kre28p-PrA (from UniProt Q04431 1-385) (natural protein)", "values": [{"measurement": "stoichiometry N (Kre28p per Spc105p)", "result": 2}]}
